From the Human Domainome abundance scans (Beltran et al. 2025)
± gives the uncertainty stated by the source.

B1: Transcription intermediary factor 1-beta, residues 620 to 671; numbered along this chain, Q13263 (parent)
chain: TLDDSATICRVCQKPGDLVMCNQCEFCFHLDCHLPALQDVPGEEWSCSLCHV
B2: Tudor domain-containing protein 3, residues 554 to 611; numbered along this chain, Q9H7E2 (parent)
chain: KMWKPGDECFALYWEDNKFYRAEVEALHSSGMTAVVKFIDYGNYEEVLLSNIKPIQTE

Variants of: B1
Assay: abundance fitness (aPCA) (normalised: wild type 0, dead -1); higher = more abundant; growth selection in yeast, the domain comes from the species named
Details: Homo sapiens

Point of comparison: C50Y, abundance fitness -1.03 ± 0.34. Against it:
- Q13E — higher, 0.092 ± 0.093
- Q13P — within error, -0.82 ± 0.16
- Q13T — higher, -0.085 ± 0.11
- Q13S — higher, 0.036 ± 0.088
- Q13Y — higher, -0.111 ± 0.12
- C24K — within error, -0.894 ± 0.27
- C24G — higher, -0.541 ± 0.12
- C24P — within error, -0.928 ± 0.28
- V52P — higher, 0.041 ± 0.17
- V52D — higher, -0.267 ± 0.23
- F28D — within error, -0.554 ± 0.34
- F28T — higher, -0.278 ± 0.12
- F28N — within error, -0.724 ± 0.28
- F28Q — within error, -0.549 ± 0.31
- F28Y — higher, -0.09 ± 0.17
- L18E — higher, -0.374 ± 0.14
- L18Y — within error, -0.632 ± 0.24
- F26Q — higher, 0.082 ± 0.16
- F26V — higher, -0.33 ± 0.11
- F26M — higher, -0.108 ± 0.2
- F26W — higher, -0.399 ± 0.13
- F26K — higher, 0.155 ± 0.13
- F26S — higher, -0.192 ± 0.1
- C47E — higher, -0.295 ± 0.088
- C47I — within error, -1.05 ± 0.22
- P15I — higher, -0.359 ± 0.32
- P15A — higher, 0.005 ± 0.11
- P15E — higher, -0.01 ± 0.14
- P15T — within error, -0.546 ± 0.17
- P15M — higher, -0.168 ± 0.24
- L37M — higher, -0.083 ± 0.14
- L37Q — higher, -0.108 ± 0.17
- L37D — higher, -0.278 ± 0.21
- H29L — within error, -1.01 ± 0.15
- H29G — within error, -0.899 ± 0.18
- H29A — within error, -1.01 ± 0.21
- T7G — higher, -0.207 ± 0.08
- T7C — higher, -0.451 ± 0.16
- T7V — higher, -0.066 ± 0.088
- P41C — higher, -0.242 ± 0.14
- P41K — within error, -0.645 ± 0.25
- P41N — higher, -0.112 ± 0.17
- P41W — higher, -0.258 ± 0.2
- G16L — higher, -0.432 ± 0.12
- G16K — higher, -0.258 ± 0.32
- G16R — higher, -0.389 ± 0.11
- G16E — higher, -0.307 ± 0.19
- G16F — within error, -0.524 ± 0.31
- D17L — higher, -0.301 ± 0.12
- D17I — higher, -0.409 ± 0.24
- D17Q — higher, -0.186 ± 0.2
- A36D — higher, -0.394 ± 0.16
- T1H — within error, -0.593 ± 0.34
- T1V — higher, -0.043 ± 0.27
- T1N — higher, 0.184 ± 0.36
- C50T — higher, -0.386 ± 0.13
- C50V — higher, -0.513 ± 0.1
- C50K — higher, -0.1 ± 0.16
- L34N — higher, 0.543 ± 0.15
- L34F — higher, 0.03 ± 0.15
- L34Q — higher, 0.05 ± 0.15
- L34V — higher, 0.062 ± 0.095
- D31R — higher, -0.324 ± 0.12
- D31A — higher, -0.257 ± 0.12
- D31S — higher, -0.317 ± 0.11
- C12Y — within error, -1 ± 0.26
- H51E — higher, 0.107 ± 0.15
- H51M — higher, 0.021 ± 0.13
- H51S — higher, 0.109 ± 0.11
- H51T — higher, 0.31 ± 0.17
- H51F — within error, -0.452 ± 0.24
- P35V — higher, -0.458 ± 0.088
- M20P — higher, 0.067 ± 0.17
- M20V — higher, -0.322 ± 0.1
- M20S — higher, -0.112 ± 0.11
- M20K — higher, -0.354 ± 0.2
- E44M — higher, -0.058 ± 0.12
- E44S — higher, -0.07 ± 0.11
- E43H — higher, 0.062 ± 0.22
- W45Q — higher, -0.085 ± 0.22
- W45I — higher, -0.254 ± 0.16
- W45A — higher, 0.051 ± 0.13
- W45Y — higher, -0.202 ± 0.19
- E25P — within error, -0.66 ± 0.24
- E25C — higher, -0.052 ± 0.16
- E25I — higher, -0.298 ± 0.21
- E25D — higher, -0.3 ± 0.26
- E25G — higher, -0.27 ± 0.1
- D4Q — higher, -0.294 ± 0.17
- D4P — higher, -0.155 ± 0.12
- D4C — higher, 0.201 ± 0.1
- D4M — higher, 0.083 ± 0.096
- V19L — higher, -0.171 ± 0.1
- V19Q — higher, -0.402 ± 0.27
- V19G — within error, -0.852 ± 0.14
- V19A — within error, -0.58 ± 0.14
- V19E — higher, -0.519 ± 0.17
- N22H — higher, -0.449 ± 0.23
- N22P — higher, -0.382 ± 0.19
- R10W — within error, -0.574 ± 0.14
- R10I — within error, -0.866 ± 0.28
- R10V — higher, -0.143 ± 0.098
- R10M — higher, -0.113 ± 0.13
- R10D — higher, -0.108 ± 0.17
- G42H — higher, 0.083 ± 0.24
- G42A — higher, 0.014 ± 0.085
- D3E — higher, 0.13 ± 0.13
- D3L — higher, -0.242 ± 0.11
- H33K — higher, -0.218 ± 0.17
- H33Q — higher, 0.042 ± 0.15
- H33E — higher, 0.2 ± 0.15
- H33L — higher, -0.117 ± 0.098
- S5V — higher, -0.381 ± 0.093
- S5G — higher, -0.308 ± 0.076
- Q38P — higher, -0.437 ± 0.15
- Q38C — higher, -0.401 ± 0.16
- Q38Y — higher, -0.417 ± 0.17
- D39V — higher, 0.026 ± 0.099
- D39Q — higher, -0.184 ± 0.17
- D39C — higher, -0.212 ± 0.15
- D39R — higher, -0.222 ± 0.1
- D39W — higher, -0.545 ± 0.14
- C9P — higher, -0.324 ± 0.11
- C9K — within error, -0.802 ± 0.42
- I8L — higher, 0.03 ± 0.092
- I8A — higher, -0.099 ± 0.095
- I8K — higher, -0.107 ± 0.14
- L30F — within error, -0.609 ± 0.19
- L30P — higher, -0.139 ± 0.17
- L30M — higher, -0.299 ± 0.16
- L30N — higher, -0.264 ± 0.16
- L2D — higher, -0.078 ± 0.17
- L2K — higher, -0.056 ± 0.33
- L2M — higher, 0.021 ± 0.17
- L2E — higher, 0.021 ± 0.17
- L2P — higher, 0.179 ± 0.27
- L2V — higher, -0.13 ± 0.1
- L49H — higher, 0.496 ± 0.15
- L49C — higher, -0.282 ± 0.14
- L49A — higher, 0.205 ± 0.076
- V40P — higher, 0.264 ± 0.19
- V40D — higher, -0.02 ± 0.15
- V40M — higher, -0.213 ± 0.22
- C21P — within error, -0.697 ± 0.36
- C21W — within error, -1.14 ± 0.26
- C32W — within error, -0.923 ± 0.18
- C32V — the same, -1.03 ± 0.17
- C32I — within error, -0.911 ± 0.2
- Q23H — within error, -0.486 ± 0.29
- Q23A — higher, -0.395 ± 0.12
- Q23Y — higher, -0.336 ± 0.21
- Q23T — higher, -0.066 ± 0.17
- S48G — higher, -0.071 ± 0.083
- S48M — higher, 0.386 ± 0.1
- S46F — higher, -0.129 ± 0.11
- S46T — higher, -0.09 ± 0.11
- S46Q — higher, 0.118 ± 0.094
- S46Y — higher, -0.245 ± 0.12
- S46P — higher, -0.208 ± 0.13
- V11A — higher, -0.131 ± 0.081
- V11R — higher, -0.128 ± 0.088
- V11L — higher, 0.009 ± 0.078
- V11I — higher, -0.064 ± 0.11
- V11D — within error, -0.484 ± 0.21
- V11Y — higher, -0.515 ± 0.17

Variants of: B2
Assay: as above
Details: Homo sapiens

S50C gave an abundance fitness of -0.08 ± 0.076.
